Assay [1] concerns the target T1, 6h.hPSMA (recombinant Human PSMA/FOLH1 Protein, R&D, Catalog #4234-ZN) (human, UniProt Q04609 44-750).
T1 construct: Bought protein; also called hPSMA.6H; hPSMA with an N-terminal polyhistidine tag; not shown: N-terminal polyhistidine (6-His) tag
Kind of assay: SPR (Biacore T-200), antibody captured on anti-human Fc, 6h.hPSMA injected, 25 C.

The target in assay [2] is T2, hCD28.mmh (hCD28 ecto (N19-P152).mmh) (human).
T2 construct: also called REGN2011
Nature of the assay: SPR (Biacore T-200), antibody captured on anti-human Fc, hCD28.mmh injected, 25 C. A general note: SPR reads the build-up and loss of mass on a sensor chip optically.

Assay [3] has as its target T3, human PSMA on cells (C4-2, 22RV1, HEK293/hCD20/hPSMA) (human, UniProt Q04609 1-750).
T3 construct: C4-2 and 22RV1 express PSMA endogenously; also called FOLH1
Kind of assay: electrochemiluminescence cell binding (MSD), C4-2 cells.

The target in assay [4] is T4, human CD28 on cells (HEK293/hCD28 cells, human T cells, engineered reporter T-cells) (human, UniProt P10747 19-220). Kind of assay: cell-based or functional assay.
For assay [5], the target named is T4, human CD28 on cells (HEK293/hCD28 …). Nature of the assay: electrochemiluminescence cell binding (MSD), HEK293-hCD28 cells.
For assay [6] the target is unchanged. Nature of the assay: cell-based or functional assay. The source holds these as a separate data set.
Assay [7] has the same target. Nature of the assay: cell-based or functional assay. This is another data set of the same source.
Assay [8] shares this target. Nature of the assay: electrochemiluminescence cell binding (MSD).
Assay [9] has as its target T3, human PSMA on cells (C4-2, 22RV1, …). Nature of the assay: electrochemiluminescence cell binding (MSD).
Assay [10] concerns the target T4, human CD28 on cells (HEK293/hCD28 …). Kind of assay: flow cytometry, human CD2+ T cells. In general terms: In flow cytometry, cells or beads pass a laser one at a time.
For assay [11] the target is unchanged. Nature of the assay: flow cytometry, human CD8+ T cells.
Assay [12] addresses T3, human PSMA on cells (C4-2, 22RV1, …). Nature of the assay: electrochemiluminescence cell binding (MSD), C4-2 cells; concentrations above 11.1 nM excluded.
The target in assay [13] is T4, human CD28 on cells (HEK293/hCD28 …). Nature of the assay: flow cytometry, human CD4+ T cells.
Assay [14] addresses T3, human PSMA on cells (C4-2, 22RV1, …). Kind of assay: flow cytometry, 22RV1 cells.
The target is the same in assay [15]. Nature of the assay: flow cytometry, C4-2 cells.
Assay [16] shares this target. Kind of assay: flow cytometry (FACS binding), MFI_APC against antibody concentration; the sheet does not name the cells; legend paragraph 55: cancer cell lines with endogenous PSMA; unit taken from the axis Log10 (M).
The target of assay [17] is T2, hCD28.mmh (hCD28 ecto (N19-P152).mmh). Nature of the assay: SPR (Biacore), captured antibody, soluble hCD28 injected, 37 C.
For assay [18], the target named is T1, 6h.hPSMA (recombinant Human PSMA/FOLH1 …). Kind of assay: SPR (Biacore), captured antibody, 20 nM hPSMA.6H row, 37 C.
Assay [19] shares this target. Nature of the assay: SPR (Biacore), captured antibody, 10 nM hPSMA.6H row, 37 C.
For assay [20], the target named is T3, human PSMA on cells (C4-2, 22RV1, …). Nature of the assay: electrochemiluminescence cell binding (MSD), supplemental experiment, C4-2 P-7 cells.

The record followed here is patent US20190389951A1 (Regeneron, published 2019).

T1 sequence (Q04609 44-750 limits assumed): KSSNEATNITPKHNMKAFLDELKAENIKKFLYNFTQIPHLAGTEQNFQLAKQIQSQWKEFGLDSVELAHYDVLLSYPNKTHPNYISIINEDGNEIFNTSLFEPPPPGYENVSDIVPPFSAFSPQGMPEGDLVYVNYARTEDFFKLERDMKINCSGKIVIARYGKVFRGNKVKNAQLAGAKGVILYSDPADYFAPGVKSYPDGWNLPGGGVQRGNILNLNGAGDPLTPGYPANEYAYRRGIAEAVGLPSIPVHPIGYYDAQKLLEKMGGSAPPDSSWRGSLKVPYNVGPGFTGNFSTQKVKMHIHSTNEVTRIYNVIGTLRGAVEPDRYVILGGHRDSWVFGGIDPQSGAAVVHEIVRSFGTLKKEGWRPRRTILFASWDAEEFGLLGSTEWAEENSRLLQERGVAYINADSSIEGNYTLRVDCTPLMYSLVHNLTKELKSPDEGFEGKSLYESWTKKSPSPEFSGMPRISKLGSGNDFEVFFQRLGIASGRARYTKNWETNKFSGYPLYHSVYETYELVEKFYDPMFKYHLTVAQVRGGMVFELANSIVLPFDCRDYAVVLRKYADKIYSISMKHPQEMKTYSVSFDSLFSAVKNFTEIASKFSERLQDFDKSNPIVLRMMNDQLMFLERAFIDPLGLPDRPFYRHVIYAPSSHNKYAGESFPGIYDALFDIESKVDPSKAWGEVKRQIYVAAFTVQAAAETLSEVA
T3 sequence (Q04609 whole entry): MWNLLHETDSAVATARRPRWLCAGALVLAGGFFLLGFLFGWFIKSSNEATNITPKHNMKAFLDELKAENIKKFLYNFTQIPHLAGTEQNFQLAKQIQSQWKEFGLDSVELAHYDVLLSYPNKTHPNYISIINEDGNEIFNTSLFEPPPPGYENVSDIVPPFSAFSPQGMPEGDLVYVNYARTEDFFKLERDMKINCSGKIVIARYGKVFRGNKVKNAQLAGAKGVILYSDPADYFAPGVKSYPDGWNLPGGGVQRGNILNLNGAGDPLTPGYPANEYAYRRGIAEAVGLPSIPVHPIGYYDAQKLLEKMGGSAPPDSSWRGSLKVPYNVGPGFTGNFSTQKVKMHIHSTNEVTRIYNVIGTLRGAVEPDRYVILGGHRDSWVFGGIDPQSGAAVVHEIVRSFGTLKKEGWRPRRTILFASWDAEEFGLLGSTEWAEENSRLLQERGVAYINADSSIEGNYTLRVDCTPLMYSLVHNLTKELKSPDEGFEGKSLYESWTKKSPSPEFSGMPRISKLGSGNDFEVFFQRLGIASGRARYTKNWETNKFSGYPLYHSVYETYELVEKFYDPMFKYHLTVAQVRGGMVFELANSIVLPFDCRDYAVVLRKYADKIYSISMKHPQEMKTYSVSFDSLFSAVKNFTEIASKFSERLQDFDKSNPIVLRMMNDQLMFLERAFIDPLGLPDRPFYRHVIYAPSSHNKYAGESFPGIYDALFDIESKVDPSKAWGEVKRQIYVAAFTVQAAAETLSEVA

B1: mAb14216P2 (antibody, V domains shown)
VH: EVQLVESGGGLVQPGGSLRLSCAASGFTFSRNNMHWVRQAPGKGLEYVSGISSNGGRTYYADSVKGRFTISRDNSKNTLYLQMGGLRAADMAVYFCTRDDELLSFDYWGQGTLVTVSS
VL: not shown
notes: Bivalent parental anti-CD28 antibody; also called anti-CD28 monoclonal antibody
Consider B1, for which the binding result in [1] is given as “no binding (tested: 10 nM)”; in [3], “no binding (tested: ratio to HEK293HZ less than 3 at 11.1 nM)”. In assay [2], the “T½ (dissociative half-life)” value came out at 8.2 min.

B2: bs16430D (bispecific antibody, V domains shown)
VH 1: EVQLVESGGGLVQPGGSLRLSCAASGFTFSTYAMTWVRQAPGKGLEWVSFISGSGDNTYYADSVKGRFTISRDNSKNTLYLQMNSLRADDSAIYHCAKDSGYCSSGGCSLYFYYGMDVWGQGTTVTVSS
VH 2: QVQLVESGGGVVQPGRSLRLSCAASGFTFSSYGMHWVRQAPGKGLEWVAVISYAGNNKYYADSVKGRFTVSRDNSKKTLYLQMNSLRSEDTAVYYCAKDSYYDFLTDPDVLDIWGQGTMVTVSS
VL: not shown
notes: two distinct heavy chains with a common light chain; also called anti-PSMA×CD28 bispecific antibody; PSMA × CD28 monoclonal antibody
For orientation: EC50 means the midpoint of the concentration-response curve. Lower therefore signals higher potency in that assay. As for B2, in [4], the “NFκB-luciferase EC50, reporter T-cells + HEK293/hCD20/hPSMA, 50 pM anti-CD3×CD20” value came to 4.57e-10 M; the “NFκB-luciferase fold induction, reporter T-cells + HEK293/hCD20, 50 pM anti-CD3×CD20” value was 0.92 fold; the “NFκB-luciferase fold induction, reporter T-cells + HEK293/hCD20/hPSMA, 50 pM anti-CD3×CD20” value is 13.6 fold. Further, the EC50 in [5] came out at 8.47 nM. Moreover, in assay [6], the “IL-2 production EC50, primary CD4+ T-cells + HEK293/hCD20/hPSMA, 50 pM anti-CD3×CD20” value came out at 1.5e-10 M; the “IL-2 production fold induction, primary CD4+ T-cells + HEK293/hCD20, 50 pM anti-CD3×CD20” value was found to be 1 fold; the “IL-2 production fold induction, primary CD4+ T-cells + HEK293/hCD20/hPSMA, 50 pM anti-CD3×CD20” value was determined as 165 fold. In assay [7], the “NFκB-luciferase fold induction, reporter T-cells + HEK293/hCD20, 50 pM hIgG4 isotype control (no TCR stimulation)” value was 0.87 fold and the “NFκB-luciferase fold induction, reporter T-cells + HEK293/hCD20/hPSMA, 50 pM hIgG4 isotype control (no TCR stimulation)” value worked out at 0.89 fold. The “ratio of binding signal (RLU) HEK293-hCD28/HEK293HZ at 11.1 nM” value in assay [8] was determined as 41 fold. In addition, the “ratio of binding signal (RLU) C4-2/HEK293HZ at 11.1 nM” value in assay [9] was 10 fold. The same molecule came in with an EC50 in assay [3] of 5.24 nM.

B3: bs16431D (bispecific antibody, V domains shown)
VH 1: QVQLVESGGGVVQPGRSLRLSCAASGFTFSSYGMHWVRQAPGKGLEWVAVISYAGNNKYYADSVKGRFTVSRDNSKKTLYLQMNSLRSEDTAVYYCAKDSYYDFLTDPDVLDIWGQGTMVTVSS
VH 2: EVQLVESGGGLVQPGGSLRLSCAASGFTFSRNNMHWVRQAPGKGLEYVSGISSNGGRTYYADSVKGRFTISRDNSKNTLYLQMGGLRAADMAVYFCTRDDELLSFDYWGQGTLVTVSS
VL: not shown
notes: as for B2
Broadly, the Kd is the free concentration of one partner at which half of the binding sites on the other are occupied at equilibrium, for simple one-to-one binding. For B3, the EC50 in assay [10] amounted to 180 nM; in [11], 180 nM; in assay [5] it was 5.31 nM; in [12], 0.35 nM; in assay [13] it was 167 nM; in assay [14], 6.33 nM. The half-maximal effective concentration (EC50) in [15] was 1.5 nM. Further, the “NFκB-luciferase EC50, reporter T-cells + HEK293/hCD20/hPSMA, 50 pM anti-CD3×CD20” value in [4] was 2.78e-10 M. Moreover, the dissociation constant (Kd) in assay [1] came out at 0.137 nM; in assay [2] it was 207 nM. The “T½ (dissociative half-life)” value in [1] came to 300 min; in [2], 8.2 min. For the same molecule, in assay [6], the “IL-2 production EC50, primary CD4+ T-cells + HEK293/hCD20/hPSMA, 50 pM anti-CD3×CD20” value amounted to 2.2e-10 M.

B4: bs16429D (bispecific antibody, human IgG4 S228P, kappa)
heavy 1: QVQLQESGPGLVKPSETLSLTCTVSGGSISSYYWSWIRQPPGKGLEWIGYIYYSGITHYNPSLKSRVTISVDTSKIQFSLKLSSVTAADTAVYYCARWGVRRDYYYYGMDVWGQGTTVTVSSASTKGPSVFPLAPCSRSTSESTAALGCLVKDYFPEPVTVSWNSGALTSGVHTFPAVLQSSGLYSLSSVVTVPSSSLGTKTYTCNVDHKPSNTKVDKRVESKYGPPCPPCPAPPVAGPSVFLFPPKPKDTLMISRTPEVTCVVVDVSQEDPEVQFNWYVDGVEVHNAKTKPREEQFNSTYRVVSVLTVLHQDWLNGKEYKCKVSNKGLPSSIEKTISKAKGQPREPQVYTLPPSQEEMTKNQVSLTCLVKGFYPSDIAVEWESNGQPENNYKTTPPVLDSDGSFFLYSRLTVDKSRWQEGNVFSCSVMHEALHNRFTQKSLSLSPGK
heavy 2: QVQLVESGGGVVQPGRSLRLSCAASGFTFSSYGMHWVRQAPGKGLEWVAFMSYDGSNKFYSDSVKGRFTISRDNSRKMLFLQMNNLRAEDTAVYYCARDQYYDFLTDHGVFDYWGQGTLVTVSSASTKGPSVFPLAPCSRSTSESTAALGCLVKDYFPEPVTVSWNSGALTSGVHTFPAVLQSSGLYSLSSVVTVPSSSLGTKTYTCNVDHKPSNTKVDKRVESKYGPPCPPCPAPPVAGPSVFLFPPKPKDTLMISRTPEVTCVVVDVSQEDPEVQFNWYVDGVEVHNAKTKPREEQFNSTYRVVSVLTVLHQDWLNGKEYKCKVSNKGLPSSIEKTISKAKGQPREPQVYTLPPSQEEMTKNQVSLTCLVKGFYPSDIAVEWESNGQPENNYKTTPPVLDSDGSFFLYSRLTVDKSRWQEGNVFSCSVMHEALHNHYTQKSLSLSLGK
light: not shown
notes: also called anti-PSMA×CD28 bispecific antibody; PSMA × CD28 monoclonal antibody
For the molecule B4, the EC50 in assay [10] came to 48 nM; in [11], 58.9 nM; in assay [5], 9.58 nM; in [16] it was 9.34 nM; in [3], 0.853 nM; in assay [13], 50.9 nM. In addition, the EC50 in [14] was 3.05 nM; in assay [15] it was 3.87 nM. Further, the “NFκB-luciferase EC50, reporter T-cells + HEK293/hCD20/hPSMA, 50 pM anti-CD3×CD20” value in assay [4] is 1.72e-10 M. The Kd in [17] is 272 nM; in assay [1], 0.251 nM; in [18], 0.217 nM; in assay [2], 144 nM; in assay [19], 0.396 nM. The “t½ (dissociative half-life)” value was 1.7 min in [17], 182 min in assay [18] and 146 min in assay [19]. Besides, the figures for the “T½ (dissociative half-life)” value in assay [1] and in assay [2] were 235 min and 3.5 min, respectively. The “IL-2 production EC50, primary CD4+ T-cells + HEK293/hCD20/hPSMA, 50 pM anti-CD3×CD20” value in assay [6] stood at 2.7e-10 M.

B5: mAb11838P2 (antibody, V domains shown)
VH: QVQLVESGGGVVQPGRSLRLSCAASGFTFSSYGMHWVRQAPGKGLEWVAFMSYDGSNKFYSDSVKGRFTISRDNSRKMLFLQMNNLRAEDTAVYYCARDQYYDFLTDHGVFDYWGQGTLVTVSS
VL: not shown
notes: Bivalent parental anti-PSMA antibody; also called anti-PSMA monoclonal antibody; mAb11838P2 (PSMA)
In the case of B5, in assay [5], the binding result is on record as “no binding (tested: ratio to HEK293HZ less than 3 at 11.1 nM)”. In assay [12], a half-maximal response (EC50) required 0.738 nM. For the same molecule, the “ratio of binding signal (RLU) HEK293-hCD28/HEK293HZ at 11.1 nM” value in [8] is less than 1 fold. Also, the “ratio of binding signal (RLU) C4-2/HEK293HZ at 11.1 nM” value in assay [9] was 4 fold.

B6: mAb14226P2 (antibody, V domains shown)
VH: QVQLQESGPGLVKPSETLSLTCTVSGGSISSYYWSWIRQPPGKGLEWIGYIYYSGITHYNPSLKSRVTISVDTSKIQFSLKLSSVTAADTAVYYCARWGVRRDYYYYGMDVWGQGTTVTVSS
VL: not shown
notes: as for B1
Regarding B6, in assay [4], the “NFκB-luciferase EC50, reporter T-cells + HEK293/hCD20, 50 pM anti-CD3×CD20” value worked out at 3.59e-09 M and the “NFκB-luciferase EC50, reporter T-cells + HEK293/hCD20/hPSMA, 50 pM anti-CD3×CD20” value worked out at 3.27e-09 M. The binding result in assay [20] is recorded as “no binding”. The binding result in assay [1] is “no binding (tested: 10 nM)”. Further, the “T½ (dissociative half-life)” value in [2] came to 3.5 min. Moreover, in assay [6], the “IL-2 production EC50, primary CD4+ T-cells + HEK293/hCD20, 50 pM anti-CD3×CD20” value is 6.05e-09 M and the “IL-2 production EC50, primary CD4+ T-cells + HEK293/hCD20/hPSMA, 50 pM anti-CD3×CD20” value was determined as 8.69e-09 M. Further, in assay [7], the “NFκB-luciferase EC50, reporter T-cells + HEK293/hCD20, 50 pM hIgG4 isotype control (no TCR stimulation)” value was determined as 5.11e-09 M and the “NFκB-luciferase EC50, reporter T-cells + HEK293/hCD20/hPSMA, 50 pM hIgG4 isotype control (no TCR stimulation)” value was 4.9e-09 M.
